Data published in paper PMC6953907.

How the values were obtained:
DDX17 Core WT [1] = target: T1, DDX17 Core WT (human, UniProt Q92841-1 32-477); assay: X-ray crystallography
DDX17 Core WT [2] = target: T1, DDX17 Core WT; assay: X-ray crystallography; remark: listed apart in the source
DDX17 Core WT [3] = target: T1, DDX17 Core WT; assay: EMSA

T1 sequence (Q92841 111-556): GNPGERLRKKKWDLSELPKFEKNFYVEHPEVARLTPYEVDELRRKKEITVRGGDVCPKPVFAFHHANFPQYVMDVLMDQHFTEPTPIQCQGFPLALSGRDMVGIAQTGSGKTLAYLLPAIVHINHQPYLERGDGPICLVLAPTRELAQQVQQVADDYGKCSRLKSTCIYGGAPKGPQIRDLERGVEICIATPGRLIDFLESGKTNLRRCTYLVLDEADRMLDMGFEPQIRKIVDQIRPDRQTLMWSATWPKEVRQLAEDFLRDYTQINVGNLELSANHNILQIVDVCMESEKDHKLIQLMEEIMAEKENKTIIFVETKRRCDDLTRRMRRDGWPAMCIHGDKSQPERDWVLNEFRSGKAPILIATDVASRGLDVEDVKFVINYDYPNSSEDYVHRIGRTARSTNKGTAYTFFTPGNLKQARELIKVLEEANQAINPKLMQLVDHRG

B1: rU10 (ssRNA)
RNA: UUUUUUUUUU
binding result (DDX17 Core WT [1]): binds

B2: 18a-oligo1 (ssRNA)
RNA: AUUCAUCCAA
binding result (DDX17 Core WT [2]): binds

B3: rA10 (ssRNA)
RNA: AAAAAAAAAA
binding result (DDX17 Core WT [3]): no binding

B4: 125a-oligo1 (ssRNA)
RNA: CACACACCUG
binding result (DDX17 Core WT [2]): binds

B5: 125a-oligo2 (ssRNA)
RNA: ACACACCUGG
binding result (DDX17 Core WT [2]): binds
